Laboratory results published in US20060257938A1, “Method of screening for drugs that block ligand binding to a lipid binding protein” (priority 2005, published 2006).
Where “and” joins values, the source holds several entries; their conditions need not be identical. Equal values may be shown once.

How the values were obtained:
Format in all cases: binding
[1] = Probe fluorescence ratio response to oleic acid relative to ADIFAB2; conditions: response relative to ADIFAB2
Method in brief: (§1)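 Fluorescently labeled rat intestinal FABP variants were read at two emission wavelengths, near the unbound maximum (about 420 to 480 nm) and the FFA-bound maximum (about 495 to 580 nm). R = Fλ1/Fλ2 after subtracting probe-free intensity; ΔR = R+agent − R0, normalized to ADIFAB2 (rI-FABP-L72A).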

[2] = Probe fluorescence ratio response to linoleic acid relative to ADIFAB2; conditions: response relative to ADIFAB2
Method in brief: as §1

[3] = Probe fluorescence ratio response to linolenic acid relative to ADIFAB2; conditions: response relative to ADIFAB2
Method in brief: as §1

[4] = Probe fluorescence ratio response to arachidonic acid relative to ADIFAB2; conditions: arachidonic acid; response relative to ADIFAB2
Method in brief: as §1

[5] = Probe fluorescence ratio response to palmitic acid relative to ADIFAB2; conditions: response relative to ADIFAB2
Method in brief: as §1

Molecule	DR/DR OA [1]	DR/DR LA [2]	DR/DR LNA [3]	DR/DR AA [4]	DR/DR PA [5]
34Q, 72A (protein, listed as Rattus norvegicus, PEPTIDE (1)...(131) wild-type rat intestinal fatty acid binding protein) AFDGTWKVDRNENYEKFMEKMGINVVKRKLGAHQNLKLTITQEGNKFTVKESSNFRNIDVVFELGVDFAYSAADGTELTGTWTMEGNKLVGKFKRVDNGKELIAVREISGNELIQTYTYEGVEAKRIFKKE	0.44	0.56	0.48	0.52	0.36
36C3, 72A (protein, listed as Rattus norvegicus, PEPTIDE (1)...(131) wild-type rat intestinal fatty acid binding protein) AFDGTWKVDRNENYEKFMEKMGINVVKRKLGAHDNCKLTITQEGNKFTVKESSNFRNIDVVFELGVDFAYSAADGTELTGTWTMEGNKLVGKFKRVDNGKELIAVREISGNELIQTYTYEGVEAKRIFKKE	−0.40	−0.36	−0.30	−0.22	−0.21
36G2, 72A (protein, listed as Rattus norvegicus, PEPTIDE (1)...(131) wild-type rat intestinal fatty acid binding protein) AFDGTWKVDRNENYEKFMEKMGINVVKRKLGAHDNGKLTITQEGNKFTVKESSNFRNIDVVFELGVDFAYSAADGTELTGTWTMEGNKLVGKFKRVDNGKELIAVREISGNELIQTYTYEGVEAKRIFKKE	0.97	1.17	1.16	1.00	0.55
36I1, 72A (protein, listed as Rattus norvegicus, PEPTIDE (1)...(131) wild-type rat intestinal fatty acid binding protein) AFDGTWKVDRNENYEKFMEKMGINVVKRKLGAHDNIKLTITQEGNKFTVKESSNFRNIDVVFELGVDFAYSAADGTELTGTWTMEGNKLVGKFKRVDNGKELIAVREISGNELIQTYTYEGVEAKRIFKKE	0.95	1.11	1.13	1.01	0.80
36H1, 72A (protein, listed as Rattus norvegicus, PEPTIDE (1)...(131) wild-type rat intestinal fatty acid binding protein) AFDGTWKVDRNENYEKFMEKMGINVVKRKLGAHDNHKLTITQEGNKFTVKESSNFRNIDVVFELGVDFAYSAADGTELTGTWTMEGNKLVGKFKRVDNGKELIAVREISGNELIQTYTYEGVEAKRIFKKE	0.77	0.81	0.86	0.76	0.40
102N, 72A (protein, listed as Rattus norvegicus, PEPTIDE (1)...(131) wild-type rat intestinal fatty acid binding protein) AFDGTWKVDRNENYEKFMEKMGINVVKRKLGAHDNLKLTITQEGNKFTVKESSNFRNIDVVFELGVDFAYSAADGTELTGTWTMEGNKLVGKFKRVDNGKENIAVREISGNELIQTYTYEGVEAKRIFKKE	0.69	0.67	0.71	0.64	−1.09
34R, 72A (protein, listed as Rattus norvegicus, PEPTIDE (1)...(131) wild-type rat intestinal fatty acid binding protein) AFDGTWKVDRNENYEKFMEKMGINVVKRKLGAHRNLKLTITQEGNKFTVKESSNFRNIDVVFELGVDFAYSAADGTELTGTWTMEGNKLVGKFKRVDNGKELIAVREISGNELIQTYTYEGVEAKRIFKKE	0.44	0.61	0.47	0.41	0.30
34S, 72A (protein, listed as Rattus norvegicus, PEPTIDE (1)...(131) wild-type rat intestinal fatty acid binding protein) AFDGTWKVDRNENYEKFMEKMGINVVKRKLGAHSNLKLTITQEGNKFTVKESSNFRNIDVVFELGVDFAYSAADGTELTGTWTMEGNKLVGKFKRVDNGKELIAVREISGNELIQTYTYEGVEAKRIFKKE	0.58	0.65	0.59	0.58	0.43
36K, 72A (protein, listed as Rattus norvegicus, PEPTIDE (1)...(131) wild-type rat intestinal fatty acid binding protein) AFDGTWKVDRNENYEKFMEKMGINVVKRKLGAHDNKKLTITQEGNKFTVKESSNFRNIDVVFELGVDFAYSAADGTELTGTWTMEGNKLVGKFKRVDNGKELIAVREISGNELIQTYTYEGVEAKRIFKKE	0.41	0.38	0.42	0.38	0.16
34W, 72A (protein, listed as Rattus norvegicus, PEPTIDE (1)...(131) wild-type rat intestinal fatty acid binding protein) AFDGTWKVDRNENYEKFMEKMGINVVKRKLGAHWNLKLTITQEGNKFTVKESSNFRNIDVVFELGVDFAYSAADGTELTGTWTMEGNKLVGKFKRVDNGKELIAVREISGNELIQTYTYEGVEAKRIFKKE	1.38 and 1.210	1.34 and 1.110	1.37 and 1.130	1.31 and 1.060	0.93 and 0.920
36E2, 72A (protein, listed as Rattus norvegicus, PEPTIDE (1)...(131) wild-type rat intestinal fatty acid binding protein) AFDGTWKVDRNENYEKFMEKMGINVVKRKLGAHDNEKLTITQEGNKFTVKESSNFRNIDVVFELGVDFAYSAADGTELTGTWTMEGNKLVGKFKRVDNGKELIAVREISGNELIQTYTYEGVEAKRIFKKE	0.20	0.25	0.23	0.24	0.19
34V, 72A (protein, listed as Rattus norvegicus, PEPTIDE (1)...(131) wild-type rat intestinal fatty acid binding protein) AFDGTWKVDRNENYEKFMEKMGINVVKRKLGAHVNLKLTITQEGNKFTVKESSNFRNIDVVFELGVDFAYSAADGTELTGTWTMEGNKLVGKFKRVDNGKELIAVREISGNELIQTYTYEGVEAKRIFKKE	1.19	1.15	1.21	1.22	1.11
36D1, 72A (protein, listed as Rattus norvegicus, PEPTIDE (1)...(131) wild-type rat intestinal fatty acid binding protein) AFDGTWKVDRNENYEKFMEKMGINVVKRKLGAHDNDKLTITQEGNKFTVKESSNFRNIDVVFELGVDFAYSAADGTELTGTWTMEGNKLVGKFKRVDNGKELIAVREISGNELIQTYTYEGVEAKRIFKKE	0.20	0.27	0.21	0.20	0.18
34Y, 72A (protein, listed as Rattus norvegicus, PEPTIDE (1)...(131) wild-type rat intestinal fatty acid binding protein) AFDGTWKVDRNENYEKFMEKMGINVVKRKLGAHYNLKLTITQEGNKFTVKESSNFRNIDVVFELGVDFAYSAADGTELTGTWTMEGNKLVGKFKRVDNGKELIAVREISGNELIQTYTYEGVEAKRIFKKE	1.19	1.24	1.22	1.22	1.06
34T, 72A (protein, listed as Rattus norvegicus, PEPTIDE (1)...(131) wild-type rat intestinal fatty acid binding protein) AFDGTWKVDRNENYEKFMEKMGINVVKRKLGAHTNLKLTITQEGNKFTVKESSNFRNIDVVFELGVDFAYSAADGTELTGTWTMEGNKLVGKFKRVDNGKELIAVREISGNELIQTYTYEGVEAKRIFKKE	0.53	0.64	0.67	0.61	0.40
36F1, 72A (protein, listed as Rattus norvegicus, PEPTIDE (1)...(131) wild-type rat intestinal fatty acid binding protein) AFDGTWKVDRNENYEKFMEKMGINVVKRKLGAHDNFKLTITQEGNKFTVKESSNFRNIDVVFELGVDFAYSAADGTELTGTWTMEGNKLVGKFKRVDNGKELIAVREISGNELIQTYTYEGVEAKRIFKKE	0.55	0.67	0.66	0.66	0.52
36A, 72A (protein, listed as Rattus norvegicus, PEPTIDE (1)...(131) wild-type rat intestinal fatty acid binding protein) AFDGTWKVDRNENYEKFMEKMGINVVKRKLGAHDNAKLTITQEGNKFTVKESSNFRNIDVVFELGVDFAYSAADGTELTGTWTMEGNKLVGKFKRVDNGKELIAVREISGNELIQTYTYEGVEAKRIFKKE	0.46	0.51	0.50	0.53	0.46
